According to IntAct's records for PubMed 20704562:

B1: Transmembrane protease serine 6 (Homo sapiens), Q8IU80 (parent)
chain: MLLLFHSKRMPVAEAPQVAGGQGDGGDGEEAEPEGMFKACEDSKRKARGYLRLVPLFVLLALLVLASAGVLLWYFLGYKAEVMVSQVYSGSLRVLNRHFSQDLTRRESSAFRSETAKAQKMLKELITSTRLGTYYNSSSVYSFGEGPLTCFFWFILQIPEHRRLMLSPEVVQALLVEELLSTVNSSAAVPYRAEYEVDPEGLVILEASVKDIAALNSTLGCYRYSYVGQGQVLRLKGPDHLASSCLWHLQGPKDLMLKLRLEWTLAECRDRLAMYDVAGPLEKRLITSVYGCSRQEPVVEVLASGAIMAVVWKKGLHSYYDPFVLSVQPVVFQACEVNLTLDNRLDSQGVLSTPYFPSYYSPQTHCSWHLTVPSLDYGLALWFDAYALRRQKYDLPCTQGQWTIQNRRLCGLRILQPYAERIPVVATAGITINFTSQISLTGPGVRVHYGLYNQSDPCPGEFLCSVNGLCVPACDGVKDCPNGLDERNCVCRATFQCKEDSTCISLPKVCDGQPDCLNGSDEEQCQEGVPCGTFTFQCEDRSCVKKPNPQCDGRPDCRDGSDEEHCDCGLQGPSSRIVGGAVSSEGEWPWQASLQVRGRHICGGALIADRWVITAAHCFQEDSMASTVLWTVFLGKVWQNSRWPGEVSFKVSRLLLHPYHEEDSHDYDVALLQLDHPVVRSAAVRPVCLPARSHFFEPGLHCWITGWGALREGGPISNALQKVDVQLIPQDLCSEVYRYQVTPRMLCAGYRKGKKDACQGDSGGPLVCKALSGRWFLAGLVSWGLGCGRPNYFGVYTRITGVISWIQQVVT
partner: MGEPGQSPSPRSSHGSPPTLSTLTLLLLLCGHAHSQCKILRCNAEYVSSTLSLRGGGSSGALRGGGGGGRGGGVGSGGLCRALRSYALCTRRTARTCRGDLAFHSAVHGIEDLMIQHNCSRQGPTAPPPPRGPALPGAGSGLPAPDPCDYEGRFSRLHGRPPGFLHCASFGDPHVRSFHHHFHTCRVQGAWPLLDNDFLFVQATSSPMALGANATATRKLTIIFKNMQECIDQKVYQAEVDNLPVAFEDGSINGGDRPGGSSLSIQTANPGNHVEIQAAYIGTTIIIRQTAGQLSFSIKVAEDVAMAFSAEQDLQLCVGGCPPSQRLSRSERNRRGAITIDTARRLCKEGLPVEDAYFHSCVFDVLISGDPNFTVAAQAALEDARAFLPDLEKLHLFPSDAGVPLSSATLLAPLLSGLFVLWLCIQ

Variants of: B1
Conditions: with rgmc_human HJV

effect of a mutation on the interaction	Variant
with no effect	Y141C
